B1: anti-mesothelin scFv-M6 (scFv)
chain: EIVMTQSPATLSLSPGERATLSCRASQSIGNSLAWYQQKPGQAPRLLIYDVSNRATGIPARFSGSGSGTDFTLTISSLEPEDFAVYYCQHRYSWPLTFGGGTKVEIKGGGGSGGGGSGGGGSQVQLVQSGGGLVKPGGSLRLSCAASGFTFSDYYMSWIRQAPGKGLEWVSYISSSGSTIYYADSVKGRFTISRDNAKNSLYLQMNSLRAEDTAVYYCARDGYRTHNWFDPWGQGTLVTVSS
B2: anti-mesothelin scFv-M7 (scFv)
chain: DIRLTQSPSSLSASLGDRVTITCRASQAISSALAWYQQKPGKAPRLLIYDASTLESGVPSRFSGSGSGTDFTLTISSLQPEDFATYYCQQADSFPLTFGGGTKLEIKGGGGSGGGGSGGGGSQVQLVQSGAEVKKSGESLKISCKGSGYGFGAYWIAWVRQMPGKGLEWMGIIYPGDSRVIYSPYFQGQVTISADKSISTAYLQWSSLKASDTAMYYCARFGGPKFATNWFDIWGQGTTVTVSS
B3: anti-mesothelin scFv-M8 (scFv)
chain: DIQLTQSPSSLSASVGDRVTITCRASQSISSSLNWYQQKPGKAPKLLIYAASSLQSGVPSRFSGSGSGTDFTLTISSLQPEDFATYSCQQSYSTPLTFGGGTKVEIKGGGGSGGGGSGGGGSQVHLVESGGGVVQPGRSLRVSCAASGFTFSGYAMYWVRQAPGKGLEYVSAITTNGGSTNYADSVKGRFTISRDNSKNTLYLQMSSLRAGDTAVYYCARGAPGYRGYYMDVWGKGTTVTVSS
B4: anti-mesothelin scFv-M13 (scFv)
chain: AIRMTQSPSSLSASVGDRVTITCRASQGISNSLAWYQQKPGKAPKLLLYAASRLESGVPSRFSGSGSGTDYTLTISSLQPEDFATYYCQQYYSTPFTFGPGTKLEIKGGGGSGGGGSGGGGSQVQLVQSGAEVKKPGSSVKVSCKTSADTFSANTINWVRQAPGHGLEWMGRIIPSLNIRDYAQEFQGRVTFTADESTNTVYMQLTSLRSEDTAVYYCARDPGSTWSPNQFFPHWGQGTLVTVSS
B5: anti-mesothelin scFv-M15 (scFv)
chain: DIQLTQSPSSLSASIGDRVTITCRASQGVNSALAWYQQKPGKPPNLLIYDASSLESGVPSRFSGSGSGRDFTLTISSLQPEDFATYYCQQFSSYPLTFGGGTKVDIKGGGGSGGGGSGGGGSQVQLVQSGAEVKKPGASVKVSCKASGYTFTSYYMHWVRQAPGQGLEWMGIINPSGGSTSYAQKFQGRVTMTRDTSTSTVYMELSSLRSEDTAVYYCARAQRGGSVYFDYWGQGTLVTVSS
B6: M18 (scFv)
chain 1: QVQLVQSGGGLVQPGGSLRLSCAASGFTFSSYWMHWVRQAPGKGLVWVSRINSDGSSTSYADSVKGRFTISRDNAKNTLYLQMNSLRAEDTAVYYCVRTGWVGSYYYYMDVWGKGTTVTVSS
chain 2: EIVLTQSPGTLSLSPGERATLSCRASQSVSSNYLAWYQQKPGQPPRLLIYDVSTRATGIPARFSGGGSGTDFTLTISSLEPEDFAVYYCQQRSNWPPWTFGQGTKVEIK
B7: anti-mesothelin scFv-M20 (scFv)
chain: AIQMTQSPSSLSASVGNRVTITCRASQGISSAVAWYQQKPGKPPKLLISYASSLESGVPSRFSGSGSGTDFSLTISSLQPEDFATYFCQQFNSYPLTFGGGTKVEIKGGGGSGGGGSGGGGSQVQLVQSGAEVRKPGESLKISCKGSGYSFRDSWIAWVRQMPGQGLEWMGIIFPGDSNPIYSPSFQGQVTISADTSISTTFLQWRSLKASDSAIYYCARHAAWGAGWFDPWGQGTLVTVSS
B8: anti-mesothelin scFv-M22 (scFv)
chain: QSALTQPASVSGSPGQSITLSCTGTRRDIGGYEYVSWYQQHPGKAPKLLIFSVNNRPSGVSHRFSGSKSGNTASLTISGLQAEDEAAYFCSSYSSRDTLVLFGGGTKLTVLGGGGSGGGGSGGGGSQVQLVQSGAEVKKPGSSVKVSCKASGGTFSSYAISWVRQAPGQGLEWMGGIIPIFGTANYAQKFQGRVTITADESTSTAYMELSSLRSEDTAVYYCASGRSGSYGLYWGQGTLVTVSS
B9: anti-mesothelin scFv-M24 (scFv)
chain: QPVLTQPPSASGTPGQRVTISCSGSSSNIGSNYVYWYQQFPGTAPKLLIYMNNQRPSGVPDRFSGSKSGTSASLAISGLRSEDEADYYCAARDDSLSGYVTFGGGTKLTVLGGGGSGGGGSGGGGSEVHLVESGGGLVQPGGSLRLSCAASGFTFSSYAMSWVRQAPGKGLEWVSAISGSGGSTYYADSVKGRFTISRDNSKNTLYLQMNSLKTEDTAVYYCTRGVATFDYWGQGTLVTVSS
B10: anti-mesothelin scFv-M27 (scFv)
chain: EIVLTQSPGTLSLSPGERATLSCRASQPIVASHLAWYQHKPGQAPRLLIYGASTRAAGIPDRFSGSGSGTDFTLTISRLEPEDFAVYFCQQYGISPFTFGPGTKVDIKGGGGSGGGGSGGGGSQVQLVQSGAEVKKPGESLKISCQGSGYSFTDYWIGWVRQAPGQGLEWMGWITPNNGNTNYAPKFQGRVTLTTDTSTSTAYMELRSLTSDDTAVYFCARRGRNSSGYLYYYSMDVWGQGTTVTVSS
B11: anti-mesothelin scFv-M28 (scFv)
chain: QSALTQPPSASGSPGQSVTISCSGTSSDVGGYNFVSWYQHHPGKAPKLMIYEVSKRPSGVPDRFSGSKSGNTASLTVSGLQAEDEADYYCSSYAGRNNPYLFGTGTKLTVLGGGGSGGGGSGGGGSQLQLQESGAEVKKPGSSVKVSCKASGGTFSSYAISWVRQAPGQGLEWMGGIIPIFGTANYAQKFQGRVTITADESTSTAYMELSSLRSEDTAVYYCARDLGGYSYGHGLDYWGQGTLVTVSS
B12: anti-mesothelin scFv-M31 (scFv)
chain: QSALTQPPSASGSPGQSVTISCTGTSSDIGGYNSVSWYQQHPGKAPKLIIYGVSRRPSGVPDRFSGSKSANTASLTVSGLQAVDEADYYCSSYGGSNNLLFGGGTKLTVLGGGGSGGGGSGGGGSEVHLVESGGGLAQPGGSLRLSCAASGFSFSSSWMAWVRQAPGKGLEWVANIKQDGSSQYYVDSVKGRFTISRDNAKNSLSLQMNSLRAEDTAVYYCARDIWYSIDYWGQGTLVTVSS
B13: anti-mesothelin scFv-M32 (scFv)
chain: DIRMTQSPSSLSASVGDRVTVTCQASEDINNSLNWYQQKPGKAPQLLIYDASDLETGVPSRFSGRGSGRDFTLTISSLQPEDFATYYCQQLNSYPLTFGGGTKLEIKGGGGSGGGGSGGGGSQVQLVQSGAEVKKPGASVKVSCKASGFTFIGYYLHWVRQAPGQGLEWMGIINPSGGRTSMAQKFQGRVSMTTDTSTGTVYLDLGRLGSDDTAVYYCARADNWNAGSMDVWGNGTTVTVSS
B14: anti-mesothelin scFv-M37 (scFv)
chain: DIVMTQTPSSLSASVGDRVTITCRASQGISNYLAWFQQKPGKAPKPLIYAASSLQSGVPSKFSGSGSGTDFTLTISNLQPEDFATYICQQYSSYPITFGQGTRLEIKGGGGSGGGGSGGGGSQLQLQESGPGLVKPSETLSLTCAVSGGSISPYYWTWIRQSPGKAMEWMGYIHYSGRTNYNPSLESRATFSVDTSKNQISLKLNSVTAADTAVYYCTKVGDPGLFDYWGPGTLVTVSS

Legend:
[1] = biological target: T1, mesothelin-Fc recombinant protein (human, UniProt Q13421 296-580, limits assumed); experiment: FACS of T cells expressing the scFv CAR, stained with Mesothelin-Fc + PE-anti-IgG-Fc; Mock T cells of the same block: 0.63
T1 construct: also called mesothelin-Fc protein; human Mesothelin-Fc; not shown: Fc part

[2] = biological target: T1, mesothelin-Fc recombinant protein; experiment: FACS of T cells expressing the scFv CAR, stained with Mesothelin-Fc + PE-anti-IgG-Fc; Mock T cells of the same block: 0.97

T1 sequence (Q13421 other isoform, or with tags, fused parts or gaps limits assumed): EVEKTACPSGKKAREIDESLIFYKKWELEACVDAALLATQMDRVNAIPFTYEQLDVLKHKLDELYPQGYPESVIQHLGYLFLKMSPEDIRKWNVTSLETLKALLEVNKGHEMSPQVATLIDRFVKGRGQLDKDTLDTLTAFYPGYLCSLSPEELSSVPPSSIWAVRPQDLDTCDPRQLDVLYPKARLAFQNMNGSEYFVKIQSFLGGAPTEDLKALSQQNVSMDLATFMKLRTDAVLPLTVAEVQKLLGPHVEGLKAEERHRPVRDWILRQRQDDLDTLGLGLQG

| Binder | number in the Mesothelin-Fc positive gate (percent of cells, unit not given) [1] | number in the Mesothelin-Fc positive gate (percent of cells, unit not given) [2] |
| --- | --- | --- |
| B1 | 83.4 |  |
| B2 | 36.3 |  |
| B3 | 80.8 |  |
| B4 | 71.1 |  |
| B5 | 48.8 |  |
| B6 | 9.53 |  |
| B7 |  | 75.6 |
| B8 |  | 80 |
| B9 |  | 93.6 |
| B10 |  | 76.3 |
| B11 |  | 82.8 |
| B12 |  | 67.9 |
| B13 |  | 84.1 |
| B14 |  | 74.2 |

Reference: patent US11897966 (UTC THERAPEUTICS SHANGHAI, dated 2024)
